The target in test [1] is T1, human CD8αα homodimer, recombinant protein (Acro Biosystems) (human, UniProt P01732 22-182).
T1 construct: also called CD8αα antigen; biotinylated CD8α recombinant protein (CDA-H82E3)
In words: SPR (Biacore 8K), antibody captured by anti-human Fc, CD8 as analyte, 1:1 fit, 25 °C. As to the method: (§1) Except for cynomolgus CD8αβ heterodimer, binding was analyzed with a two-fold dilution series of recombinant CD8αα homodimer or CD8αβ heterodimer protein from 200 nM to 6.25 nM. For cynomolgus CD8αβ heterodimer, binding was analyzed with a two-dilution series from 400 nM to 12.5 nM.. The global fitting was performed with a 1:1 fitting model using GatorOne software as described below.
(§2) Surface plasmon resonance (SPR) assays were performed using a Biacore 8K SPR instrument (Cytiva) in a running buffer containing 1×HBS-N(Cytiva) and 0.05% Tween-20 at 25° C. The CBD1033 antibody was captured by anti-human IgG (Fc) antibody (Cytiva) immobilized on a CM5 sensor chip (Cytiva) at a density within 40-50 and 80-100 response units (RU) for kinetic measurements with CD8αα and CD8αp, respectively. To measure the binding kinetics, serial two-fold dilutions of recombinant CD8 protein were prepared in the running buffer were injected into the flow cells at […], with the concentration ranging from 200 to 6.25 nM (successive 1:2 dilutions). The association data was collected for 180 s followed by a 1200 s dissociation step. At the end of each binding cycle, the sensor surface was regenerated with a 3M MgCl₂ buffer. For cynomolgus macaque CD8αβ heterodimer, the binding kinetics were assessed with the same experimental parameters, except the concentration ranges from 400 to 12.5 nM. Sensorgrams were generated, and background-subtracted with the blank running buffer. The binding kinetic parameters were analyzed and determined with a standard 1:1 monovalent binding (Langmuir) model using BIAcore Evaluation software (Cytiva).

In test [2] the target is human CD8αβ heterodimer, recombinant protein (human, UniProt P01732 22-182; P10966 22-170, limits assumed). Described as above. Here is the method:
as §1, §2

Test [3] concerns the target T2, cynomolgus macaque CD8αβ heterodimer, recombinant protein (cynomolgus macaque).
T2 construct: In BLI coupled directly to amine-reactive sensor tips; also called cynomolgus CD8αβ heterodimer
Described as above. Here is the method: as §1, §2

The target in test [4] is T3, human CD8 on cells (CD8-overexpressing HEK293T cells, SupT1, HPB-ALL, human T cells, transfected HEK293 of … (human, UniProt P01732 22-235)).
T3 construct: whole, on cells; also called cell surface CD8
In words: flow cytometry on HPB-ALL cells; HPB-ALL cells. Here is the method: To obtain the results shown in FIG. 6, SupT1 (ATCC #CRL-1942) and HPB-ALL (DSMZ; ACC-483) were cultured in RPMI medium supplemented with 10% Fetal Bovine Serum (#97068-085; Avantor). To determine EC₅₀ values of cell binding from the anti-CD8α antibody, 2×10⁵ total cells were transferred to a V bottom 96-well culture plate (Corning). Cells were washed twice with Cell Staining buffer (#420201, Biolegend). The anti-CD8α antibody was diluted in four-fold antibody titration series from 60 μg/mL to […] into Cell Staining buffer. Cells were stained with each diluted antibody solution for 30 minutes on ice. Cells were then washed three times with Cell Staining buffer and primary antibody binding was detected by staining with anti-human Fc BV421 conjugate antibody (#410704, Biolegend) at 1:200 dilution for 30 minutes on ice. eFluor 780 Fixable Viability dye (eBioscience) at a 1:4000 dilution were also included in the detection antibody solutions. […] Flow cytometry data was analyzed by Flowjo 10 (Becton, Dickinson & Company) to measure the geometric median fluorescence intensity (gMFI) of the on-cell binding from each antibody. The gMFI values were normalized with the gMFI measured in the sample stained with only the secondary detection antibody and plotted against the concentration of the added antibodies. […]

The target in test [5] is T1, human CD8αα homodimer, recombinant …. Nature of the test: BLI steady state analysis of the data of FIG. 2D. As to the method:
The global fitting was performed with a 1:1 fitting model using GatorOne software as described below.
To assess affinity of whole antibodies, steady state analysis was used as the bivalent nature of both whole antibody and CD8α complicates kinetic analysis. 50 nM CD8α-His (that is, CD8α with a C-terminal oligohistidine tag; Acro) was immobilized on Ni-NTA sensor probes. Binding was analyzed with a three-fold antibody dilutions series: 60 nM, 20 nM, 6.67 nM, 2.22 nM, 0.74 nM, and 0.25 nM. The antigen-loaded sensors were incubated in the diluted solutions to capture the whole IgG antibody for 300 s to record the association phase. Sensors were incubated in the kinetic buffer for 900 s to record the dissociation phase. The spin speed was 1000 rpm for all steps except the antigen loading step which was 400 rpm to control density of the antigen. The temperature of the performed assays was at 30° C. during the association and dissociation phases. The sensor data were baseline subtracted and further analyzed in GatorOne software (version 2.10) to determine the equilibrium dissociation constants (KD) of the antibodies by fitting the signals of the steady states to the 1:1 binding model.

The term Kd denotes a measure of binding affinity in units of concentration. A word on the koff: it is a measure of how fast the partners let go of each other. As usually defined, the kon is the rate constant with which the complex forms. For orientation: EC50 means the concentration giving half of the maximal effect. A low value points to higher potency in that assay.

Sequence of human CD8αβ heterodimer, recombinant protein (P01732 22-182 limits assumed, chain 1 of 2): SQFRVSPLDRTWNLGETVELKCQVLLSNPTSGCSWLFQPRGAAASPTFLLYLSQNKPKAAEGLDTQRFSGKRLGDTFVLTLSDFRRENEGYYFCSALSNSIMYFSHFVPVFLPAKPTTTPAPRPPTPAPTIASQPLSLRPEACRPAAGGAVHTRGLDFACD
Sequence of human CD8αβ heterodimer, recombinant protein (P10966 22-170 limits assumed, chain 2 of 2): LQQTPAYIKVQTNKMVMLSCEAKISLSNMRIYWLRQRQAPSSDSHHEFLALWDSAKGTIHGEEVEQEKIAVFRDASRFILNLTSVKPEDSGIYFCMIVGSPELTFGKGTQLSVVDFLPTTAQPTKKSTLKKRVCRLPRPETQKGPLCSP
T1 sequence (P01732 22-182 limits assumed): as the sequence (P01732 22-182 limits assumed, chain 1 of 2) above
T3 sequence (P01732 22-235): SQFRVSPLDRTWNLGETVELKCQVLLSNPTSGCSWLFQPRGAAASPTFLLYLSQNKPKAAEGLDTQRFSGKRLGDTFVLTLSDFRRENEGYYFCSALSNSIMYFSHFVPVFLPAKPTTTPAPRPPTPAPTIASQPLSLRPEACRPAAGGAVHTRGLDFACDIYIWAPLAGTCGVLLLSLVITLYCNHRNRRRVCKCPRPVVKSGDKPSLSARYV

B1: CBD1033 whole antibody, human IgG1 with Fc-silencing mutations L234A, L235A and P329A (CBD1033-hIgG1-LALAPA) (antibody, V domains shown)
VH: QVQLVQSGAEVKKPGASVKVSCKASRYTFTDYNLHWVRQAPGQGLEWMGFIYPYNGGTGYAQKFQGRVTMTVDTSTSTAYMELSSLRSEDTAVYYCARDHRYNEGVSFDYWGQGTTVTVSS
VL: DIQLTQSPSSLSASVGDRATITCRASESVDGFGNSFMNWYQQKPGKAPKLLIYLASNLESGVPSRFSGSGSGTDFTLTISSVQPEDFATYYCQQNNEDPYTFGQGTKLEIKR
notes: On tLNPs the antibody was SATA-modified or AJICAP-thiolated (CBD1033.29) and conjugated to the LNP; also called CBD1033.3; CBD1033 IgG1
Take B1: the Kd in test [1] turned out to be 2.46 nM; in test [2], 8.99 nM; in test [3] it was 31 nM; in test [5], 2.27 nM. Besides, the figures for the off-rate constant (koff) in test [1], in test [2] and in test [3] were 0.000289 s⁻¹, 0.00111 s⁻¹ and 0.00114 s⁻¹, respectively. In addition, the figures for the kon in test [1], in test [2] and in test [3] were 117000 M⁻¹ s⁻¹, 124000 M⁻¹ s⁻¹ and 36800 M⁻¹ s⁻¹, respectively. In addition, the half-maximal effective concentration (EC50) in test [4] was determined as 0.274 µg/mL.

The record behind these values is patent US20250195685A1 (CAPSTAN THERAPEUTICS, published 2025).
